Measured values: US20100015637A1 (AbbVie / Abbott, published 2010)

Key:
[1] = target: human PlGF-1 comprising amino acids 1-137 produced in human embryonic kidney cells (human) (UniProt P49763); test: Format 3 Quantikine ELISA, capture MAb264, detection Pb264; sFlt-1 77 pmol/L (ratio 2.5)
[2] = target: human PlGF-1 comprising amino acids 1-137 produced in human embryonic kidney cells (human) (UniProt P49763); test: Format 3 Quantikine ELISA, capture MAb264, detection Pb264; sFlt-1 2300 pmol/L (ratio 75)
[3] = target: human PlGF-1 comprising amino acids 1-137 produced in human embryonic kidney cells (human) (UniProt P49763); test: Format 3 Quantikine ELISA, capture MAb264, detection Pb264; sFlt-1 153 pmol/L (ratio 5)
[4] = target: human PlGF-1 comprising amino acids 1-137 produced in human embryonic kidney cells (human) (UniProt P49763); test: Format 3 Quantikine ELISA, capture MAb264, detection Pb264; sFlt-1 920 pmol/L (ratio 30)
[5] = target: human PlGF-1 comprising amino acids 1-137 produced in human embryonic kidney cells (human) (UniProt P49763); test: Format 2 …, capture MAb264, detection Pb264; sFlt-1 0 pmol/L (ratio 0)
[6] = target: human PlGF-1 comprising amino acids 1-137 produced in human embryonic kidney cells (human) (UniProt P49763); test: Format 2 …, capture MAb264, detection Pb264; sFlt-1 307 pmol/L (ratio 10)
[7] = target: human PlGF-1 comprising amino acids 1-137 produced in human embryonic kidney cells (human) (UniProt P49763); test: Format 2 …, capture MAb264, detection Pb264; sFlt-1 3067 pmol/L (ratio 100)
[8] = target: human PlGF-1 comprising amino acids 1-137 produced in human embryonic kidney cells (human) (UniProt P49763); test: Format 1 …, capture 2-826-335, detection 1-255-713; sFlt-1 613 pmol/L (ratio 20)
[9] = target: human PlGF-1 comprising amino acids 1-137 produced in human embryonic kidney cells (human) (UniProt P49763); test: Format 1 …, capture 2-826-335, detection 1-255-713; sFlt-1 77 pmol/L (ratio 2.5)
[10] = target: T1, CHO human PlGF-1 comprising amino acids 1-137 (human PlGF-1-His (1-131), CHO 6305) (human, UniProt P49763 19-221, N-glycans at N21 (completely glycosylated) and N89 (partially glycosylated)); test: … sandwich, capture MAb826, detection pAb264; antigen 1500 pg/mL
T1 construct: Mature human PlGF-1 with 6xHis tag (137 amino acids); also called CHO (1-137)
T1 sequence: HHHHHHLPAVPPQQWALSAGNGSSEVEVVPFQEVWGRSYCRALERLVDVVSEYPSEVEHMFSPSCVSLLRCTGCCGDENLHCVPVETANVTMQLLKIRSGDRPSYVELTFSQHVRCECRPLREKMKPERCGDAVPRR

[11] = target: T2, human PlGF-1 comprising amino acids 1-137 produced in human embryonic kidney cells (human, UniProt P49763 19-221); test: as above
T2 construct: Mature human PlGF-1 with 6xHis tag; also called HEK (1-137); full length HEK human PlGF-1 (1-137)
T2 sequence: T1 sequence

[12] = target: T3, CHO human PlGF-1 fragment (comprising amino acids 17-131; ATCC PTA-8540) (human, UniProt P49763 35-221); test: as above
T3 sequence: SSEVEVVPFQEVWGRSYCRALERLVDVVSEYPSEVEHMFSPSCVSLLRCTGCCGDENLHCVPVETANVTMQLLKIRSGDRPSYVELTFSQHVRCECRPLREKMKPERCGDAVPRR

[13] = target: T4, human PlGF-1 fragment (comprising amino acids 17-131) produced in human embryonic kidney cells (human, UniProt P49763 35-221); test: as above
T4 sequence: T3 sequence

[14] = target: recombinant human PlGF-1 (comprising amino acids 1-131) expressed in E. coli (R&D Systems) (human) (UniProt P49763); test: … sandwich, capture MAb255, detection MAb826; antigen 750 pg/mL
[15] = target: recombinant human PlGF-1 (comprising amino acids 1-131) expressed in E. coli (R&D Systems) (human) (UniProt P49763); test: … sandwich, capture MAb255, detection pAb264; antigen 0 pg/mL (blank)
[16] = target: T1, CHO human PlGF-1 comprising amino acids …; test: … sandwich, capture MAb255, detection MAb826; antigen 1500 pg/mL
Method in brief: (§1)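 In a sandwich immunoassay, human PlGF-1 antigen preparations, including recombinant forms expressed in CHO cells, were tested at 0 to 1500 pg/mL. Magnetic microparticles carried a monoclonal anti-human PlGF-1 capture antibody, attached by passive coating and EDAC cross-linking, and a second monoclonal anti-human PlGF-1 antibody labeled with acridinium ester served for detection. At each antigen level, the chemiluminescent signal was read in relative light units (RLU).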

[17] = target: T2, human PlGF-1 comprising amino acids …; test: as above
Method in brief: as §1

[18] = target: T3, CHO human PlGF-1 fragment (comprising …); test: as above
Method in brief: as §1

[19] = target: T4, human PlGF-1 fragment (comprising amino …); test: as above
Method in brief: as §1

native sFlt-1, isolated from human placental tissue (from UniProt P17948 27-687) (receptor)
% Inhibition [1]: 18.3% | PlGF-1 Measured [1]: 707 pg/mL | % Inhibition [2]: 75.9% | PlGF-1 Measured [2]: 209 pg/mL | % Inhibition [3]: 24.6% | PlGF-1 Measured [3]: 652 pg/mL | % Inhibition [4]: 45% | PlGF-1 Measured [4]: 476 pg/mL | % Inhibition [5]: 0% | PlGF-1 Measured [5]: 786 pg/mL | % Inhibition [6]: 81.8% | PlGF-1 Measured [6]: 143 pg/mL | % Inhibition [7]: 95.7% | PlGF-1 Measured [7]: 33.8 pg/mL | % Inhibition [8]: 88.3% | PlGF-1 Measured [8]: 120 pg/mL | % Inhibition [9]: 41.9% | PlGF-1 Measured [9]: 594 pg/mL

B1: monoclonal antibody 2-826-335 (produced by murine hybridoma cell line 2-826-335, ATCC PTA-8539) (antibody, mouse IgG1, V domains shown)
VH: QVQLKQSGPGLVQPSQSLSITCTVSGFSLTTYGIHWVRQSPGKGLEWLGVMWSGGDTDYDAAFISRLSISKDNSKSQVFFKMNSLQANDTGIYYCARYRFYGMDYWGQGTSVTVSS
VL: AIQMTQSSSSFSVSLGDRVTITCKASEDIYNRFAWYQQKPGNAPRLLISGAASLEAGVPSRFSGSGSGQDYTLSITSLQTEDVATYYCQQYWSTPWTFGGGTKLEIKR
notes: also called MAb826
RLU [10]: 329000 RLU | RLU [11]: 760000 RLU | RLU [12]: 456000 RLU | RLU [13]: 624000 RLU

B2: monoclonal antibody 1-255-713 (produced by murine hybridoma cell line 1-255-713, ATCC PTA-8536) (antibody, mouse IgG2a, V domains shown)
VH: QVHLQQSGAELMKPGASVKISCKATGYTFSSYWIEWVKQRPGHGLEWIGEILPGSVSNNFNEKFKDKATLTADPSSNTAYIQVSSLTSEDSAVYYCARSTGFYYGGNYFDHWGQGTTLAVSS
VL: DVVMTQTPLSLPVSPGDQASISCRSSQSLVHSNGHTYLHWYLQKPGQSPKLLIYKVSNRFSGVPDRVSGSGSGTDFTLKISRVEAEDLGVYFCSQSTHVPPTFGGGTKLEIKR
notes: also called MAb255
RLU [14]: 780000 RLU | RLU [15]: 14300 RLU | RLU [16]: 734000 RLU | RLU [17]: 1.52e+06 RLU | RLU [18]: 750000 RLU | RLU [19]: 1.04e+06 RLU
